{"source": "patent US20160061839A1", "about": "(LABORATORY CORPORATION OF AMERICA, published 2016)", "binders": {"B1": {"name": "Her3.B9A11.H1 (antibody, V domains shown)", "VH": "EVQLQQPGTVLARPGASVRMSCKASGYTFTSYWMHWVKQRPGQGLEWIGAIYPGNSDTRDNQKFKGKAELTAVTSASTAYMELSSLTNEDSAVYYCTSYYFDGAGYFDFWGQGTTLTVSS", "VL": "DIVMSQSPSSLAVSAGEKVTLSCKSSQSLLNSRTRKNYLAWYQQKPGQSPKLLIYWASTRESGVPDRFTGSGSGTDFTLTVSSVQAEDLAVYYCKQSYNLWTFGGGTKLEIK", "notes": "Mouse hybridoma monoclonal antibody; The matched isotype control is IgG1; also called B9A11-biotin"}}, "key": {"Her-2": {"target": "T1, Her-2 (human, UniProt P04626 23-1255)", "T1 construct": "whole, on cells; also called ErbB2; c-Erb-B2", "assay": "IHC on FFPE SKOV3 cells (high HER2, low HER3)"}, "Her-3": {"target": "T2, Her-3 (human, UniProt P21860 20-1342)", "T2 construct": "whole, on cells; In the IHC and VERATAG assays the protein stood in formalin-fixed, paraffin-embedded cells or tumor sections; also called ErbB3; c-erb-B3", "T2 sequence (P21860 20-1342)": "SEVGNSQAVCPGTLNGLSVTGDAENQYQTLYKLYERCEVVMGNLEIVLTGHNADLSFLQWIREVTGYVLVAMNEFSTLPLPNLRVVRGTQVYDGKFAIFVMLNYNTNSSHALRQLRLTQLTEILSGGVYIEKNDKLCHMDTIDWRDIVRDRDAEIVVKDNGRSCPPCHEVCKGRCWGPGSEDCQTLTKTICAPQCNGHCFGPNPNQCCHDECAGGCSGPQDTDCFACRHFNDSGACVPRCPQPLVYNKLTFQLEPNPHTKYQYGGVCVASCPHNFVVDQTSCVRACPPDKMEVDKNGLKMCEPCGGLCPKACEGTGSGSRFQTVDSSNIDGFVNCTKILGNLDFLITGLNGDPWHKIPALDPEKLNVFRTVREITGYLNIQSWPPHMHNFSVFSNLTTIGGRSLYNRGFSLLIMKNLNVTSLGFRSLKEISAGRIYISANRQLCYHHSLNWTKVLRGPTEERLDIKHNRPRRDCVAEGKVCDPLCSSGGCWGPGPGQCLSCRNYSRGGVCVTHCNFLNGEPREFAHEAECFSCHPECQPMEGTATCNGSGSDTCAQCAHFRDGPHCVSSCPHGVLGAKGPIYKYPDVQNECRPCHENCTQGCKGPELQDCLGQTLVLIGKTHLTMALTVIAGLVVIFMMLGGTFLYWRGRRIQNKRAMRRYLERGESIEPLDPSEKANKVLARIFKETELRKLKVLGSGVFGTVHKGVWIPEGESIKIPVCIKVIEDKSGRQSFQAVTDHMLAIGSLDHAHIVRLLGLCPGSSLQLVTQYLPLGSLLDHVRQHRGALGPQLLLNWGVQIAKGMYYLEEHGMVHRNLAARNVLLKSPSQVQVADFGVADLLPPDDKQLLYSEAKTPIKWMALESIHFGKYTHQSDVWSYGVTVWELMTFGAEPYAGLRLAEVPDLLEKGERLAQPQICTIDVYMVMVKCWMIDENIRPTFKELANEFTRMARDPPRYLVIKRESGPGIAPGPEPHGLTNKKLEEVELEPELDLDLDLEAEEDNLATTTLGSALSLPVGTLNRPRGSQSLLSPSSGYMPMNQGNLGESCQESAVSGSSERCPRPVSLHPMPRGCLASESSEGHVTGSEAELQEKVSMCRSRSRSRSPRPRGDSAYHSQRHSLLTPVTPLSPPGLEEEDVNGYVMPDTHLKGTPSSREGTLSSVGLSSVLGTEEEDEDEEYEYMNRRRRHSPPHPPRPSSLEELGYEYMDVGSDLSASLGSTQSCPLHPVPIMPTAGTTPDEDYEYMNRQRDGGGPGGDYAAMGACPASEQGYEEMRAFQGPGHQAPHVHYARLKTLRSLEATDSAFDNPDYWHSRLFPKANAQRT", "assay": "IHC on FFPE 293H3-clone 1 cells over-expressing HER3"}}, "data": [{"binder": "B1", "values": [{"measurement": "binding result", "setting": "Her-2", "value": "no binding"}, {"measurement": "binding result", "setting": "Her-3", "value": "binds"}]}]}
